Legend:
[1] = system: C=C(OP(=O)(O)O)C(=O)O; assay: purified protein, by the assay type; settings: other: 2 mM E4P, 37° C., pH 7.5
[2] = system: O=C[C@H](O)[C@H](O)COP(=O)(O)O; assay: purified protein, by the assay type; settings: other: 1.5 mM PEP, 37° C., pH 7.5
Experimental: (§1) To examine their functional properties, the recombinant DHS enzymes of Brachypodium were produced and characterized in vitro.
(§2) All DHS effectors tested were included in the initial reaction mixtures at a concentration of 0.5 mM, except for IC50 determination for arogenate and tryptophan, in which variable concentrations were used. To ensure at least 10 minutes of linear reaction, enzyme mass per reaction was carefully adjusted to between 100 to 300 ng (depending on the specific activity of each specific isoform) using DHS storage buffer supplemented with BSA. […] The enzymatic reaction was started with the addition of E4P (variable concentration, see below).
(§3) The DHS assay for UHPLC-MS quantification was set up using the same settings as described in the previous paragraph for the UV-based DHS assay, which guaranteed at least 10 minutes of reaction linearity. After a 10-minute incubation, 20 μL of the reactions (out of a total volume of 50 μL) were mixed into 80 μL of methanol, vortexed and transferred to vials for injection. Analysis of DAHP by UHPLC-MS was conducted using the same chromatographic settings as described for the UHPLC-MS analysis of soluble metabolites and compared with an authentic DAHP standard (Sta. Cruz biotechnology, cat. no. sc-216432).

[3] = system: O=C[C@H](O)[C@H](O)COP(=O)(O)O; assay: DHS activity: kinetics and effector inhibition; type: biochemical, Brachypodium distachyon; settings: other: 1.5 mM PEP, 37° C., pH 7.5
Experimental: as §1, §2, §3

Chain of Brachypodium distachyon BdDHS2, SEQ ID NO: 5, recombinant (Brachypodium distachyon) (chain, as listed by the source): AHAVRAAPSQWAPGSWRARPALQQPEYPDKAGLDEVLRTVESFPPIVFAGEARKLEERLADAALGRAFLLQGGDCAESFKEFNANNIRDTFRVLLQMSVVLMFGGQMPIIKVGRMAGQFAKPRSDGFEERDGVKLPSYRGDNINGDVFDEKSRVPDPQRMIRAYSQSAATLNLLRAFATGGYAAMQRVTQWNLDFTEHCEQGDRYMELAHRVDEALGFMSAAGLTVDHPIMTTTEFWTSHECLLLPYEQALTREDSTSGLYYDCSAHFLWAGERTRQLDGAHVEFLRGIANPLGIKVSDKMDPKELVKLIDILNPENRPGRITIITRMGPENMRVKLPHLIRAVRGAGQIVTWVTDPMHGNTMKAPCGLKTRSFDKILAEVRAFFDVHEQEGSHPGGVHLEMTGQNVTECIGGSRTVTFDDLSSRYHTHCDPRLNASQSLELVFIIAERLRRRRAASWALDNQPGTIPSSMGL
Chain of Brachypodium distachyon BdDHS1b, SEQ ID NO: 3, recombinant (Brachypodium distachyon) (chain, as listed by the source): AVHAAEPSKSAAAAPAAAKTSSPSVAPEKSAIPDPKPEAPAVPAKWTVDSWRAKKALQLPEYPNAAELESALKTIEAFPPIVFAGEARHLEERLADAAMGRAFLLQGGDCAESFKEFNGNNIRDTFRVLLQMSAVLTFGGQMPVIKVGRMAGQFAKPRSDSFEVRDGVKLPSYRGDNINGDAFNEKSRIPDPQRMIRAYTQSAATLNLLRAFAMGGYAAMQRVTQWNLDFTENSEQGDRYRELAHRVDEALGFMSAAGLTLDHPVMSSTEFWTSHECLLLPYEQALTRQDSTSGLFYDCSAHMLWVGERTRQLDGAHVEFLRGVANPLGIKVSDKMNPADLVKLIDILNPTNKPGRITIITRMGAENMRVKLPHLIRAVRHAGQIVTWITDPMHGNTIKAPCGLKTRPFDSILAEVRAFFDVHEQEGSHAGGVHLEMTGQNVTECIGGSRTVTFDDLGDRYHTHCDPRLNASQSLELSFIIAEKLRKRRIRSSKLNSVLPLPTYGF
Chain of Brachypodium distachyon BdDHS1a, SEQ ID NO: 1, recombinant (Brachypodium distachyon) (chain, as listed by the source): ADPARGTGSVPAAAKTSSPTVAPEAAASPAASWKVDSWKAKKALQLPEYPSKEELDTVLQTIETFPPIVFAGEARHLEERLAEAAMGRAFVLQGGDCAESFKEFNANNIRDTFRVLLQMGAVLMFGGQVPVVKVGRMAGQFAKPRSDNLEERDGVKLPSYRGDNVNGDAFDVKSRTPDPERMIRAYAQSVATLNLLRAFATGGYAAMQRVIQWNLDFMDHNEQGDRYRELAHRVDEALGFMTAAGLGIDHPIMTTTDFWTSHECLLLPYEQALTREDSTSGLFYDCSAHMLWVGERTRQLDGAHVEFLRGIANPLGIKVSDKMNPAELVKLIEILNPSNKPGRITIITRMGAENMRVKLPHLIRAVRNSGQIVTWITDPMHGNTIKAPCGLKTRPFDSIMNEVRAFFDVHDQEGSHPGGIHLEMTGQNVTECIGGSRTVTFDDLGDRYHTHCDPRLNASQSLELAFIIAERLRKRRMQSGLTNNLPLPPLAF

Row | Substance | Km [1] [µM] | kcat [1] [s⁻¹] | kcat/Km [1] [M⁻¹ s⁻¹] | K0.5 [2] [mM] | kcat [2] [s⁻¹] | K0.5 [3] [mM] | kcat [3] [s⁻¹]
1 | Brachypodium distachyon BdDHS1a, SEQ ID NO: 1, recombinant (Brachypodium distachyon) | 130 | 17 | 126000 | 0.55 | 17 |  | 
2 | Brachypodium distachyon BdDHS1b, SEQ ID NO: 3, recombinant (Brachypodium distachyon) | 200 | 11.3 | 57200 |  |  |  | 
3 | Brachypodium distachyon BdDHS2, SEQ ID NO: 5, recombinant (Brachypodium distachyon) | 190 | 5.6 | 29000 |  |  | 0.51 | 5.6
